Measured values as given in patent publication US10501502B2, “Allophycocyanin alpha-subunit evolved labeling proteins (smURFPs)” (The Regents of the University of California, priority 2016, dated 2019).

B1: smURFP: small ultra-red fluorescent protein, SEQ ID NO: 13, homodimer, covalently attaches biliverdin (protein)
chain: MKTSEQRVNIATLLTENKKKIVDKASQDLWRRHPDLIAPGGIAFSQRDRALCLRDYGWFLHLITFCLLAGDKGPIESIGLISIREMYNSLGVPVPAMMESIRCLKEASLSLLDEEDANETAPYFDYIIKAMS
modifications: homodimer; biliverdin chromophore; smRUFP Variant Polypeptide
B2: smURFP + BVMe2: smURFP with a single biliverdin dimethyl ester chromophore (protein)
chain: B1 chain
modifications: left off: small tags and cut ends
notes: smURFP with a single biliverdin dimethyl ester chromophore

Key:
[1] = Native PAGE quaternary structure / stoichiometry; type: physicochemical; conditions: for stoichiometry: Table 5
Experimental: Native PAGE was run using NativePAGE Novex Bis-Tris Gel System (Life Technologies) on Native PAGE 4-16% Bis-Tris protein gels (Life Technologies). SDS-denaturing PAGE was run using NuPAGE MOPS SDS running buffer (Life Technologies) and NuPAGE Novex 4-12% Bis-Tris gels (Life Technologies). Precision Plus Protein Dual Color Standards (Bio-Rad) were used as an MW ladder. Zinc blot was performed after running the SDS-PAGE gel using the described method^44. Fluorescence was imaged using a BioSpectrum AC Imaging System (UVP) with EX/EM=535(45)/605(70) nm for tdTomato, EX/EM=650(13)/690(50) nm for smURFP and TDsmURFP, EX/EM=685(40)/710LP nm for IFP1.4 and BV+zinc.

HT1080 cells = assay: FP fluorescence in HT1080 cells in vitro; type: cell-based; conditions: for fold greater fluorescence than mCardinal: BVMe2
PC3 cells = assay: Photobleaching FP or FP fusions in mammalian cells; type: cell-based; conditions: for t50%, time to bleach for 50% emission intensity / A1, Double Exportential Decay Fit / A2, Double Exportential Decay Fit / A, Single Exponential Decay Fit / k1, Double Exportential Decay Fit / k2, Double Exportential Decay Fit / k, Single Exponential Decay Fit: PC3 cells; for t50%, time to bleach for 50% emission intensity: 25 μM BV or 1 μM BVMe2 for 4 h; for A1, Double Exportential Decay Fit / A2, Double Exportential Decay Fit / A, Single Exponential Decay Fit / k1, Double Exportential Decay Fit / k2, Double Exportential Decay Fit / k, Single Exponential Decay Fit: photobleaching; for mammalian cell photostability t50%: time to bleach 50% from an initial emission rate of 1,000 photons per s
Experimental: PC3 cells were transfected with 2 μg of circular DNA+5 μl Lipofectamine 2000 (Life Technologies) in 2 ml Opti-MEM (Life Technologies) for 4-5 h, transfection media was discarded, prewarmed growth media was added, and protein was produced for 48 h. 25 μM BV or 1 μM BVMe2 was incubated for 4 h. Cells were photobleached with continuous light exposure from a 150 W xenon arc lamp with eGFP EX/EM=495(10)/535(25) nm, tdTomato EX/EM=540(25)/595(50) nm, mCherry EX/EM=580(20)/[…] nm, and smURFP EX/EM=628(40)/680(30) nm focused with a 40×, 1.2 numerical aperture C-Apochromat oil-immersion lens on aZeiss Axiovert 200M inverted microscope. Photobleaching times were normalized to reflect an initial illumination intensity producing 1,000 photons per fluorescent molecule per second as previously described^37. Data was fit to a single exponential decay (F=A [exp^−kt]), where F is fluorescence that varies as a function of time, A is the fit normalized, initial fluorescence (should be 1), k is the rate of fluorescence decay (photobleaching), and t is time in s, or a double exponential decay (F=A1[exp^−k1^t]+A2[exp^−k2^t]), where F is fluorescence that varies as a function of time, A1 and A2 are the fit normalized, initial fluorescence (sum should be 1), k1 and k2 are the rates of fluorescence decay (photobleaching), and t is time in seconds, and data is shown in Table 6.

HEK293A cells = assay: Fluorescence imaging of FPs in HEK293A cells with chromophore addition or HO-1 expression; type: cell-based
Description: smURFP codons were optimized for human cell expression, and the gene was created by GenScript. smURFP, TDsmURFP (created from mammalian-optimized smURFP), IFP1.4 (mammalian-optimized form^35), IFP2.0 (mammalian-optimized form^46), and iRFP713 (mammalian-optimized form^36) were PCR amplified using Phusion High-Fidelity DNA Polymerase (NEB) with primers containing 5′ HindIII and 3′ XhoI restriction enzyme sites. HindIII-HF and XhoI (NEB)-digested PCR fragments were gel purified (Zymoclean Gel DNA Recovery Kit) and were ligated (T4 DNA Ligase, Life Technologies) into a similarly digested pCDNA3-IRES-eGFP vector (bicistronic to express two FPs in the same cell). For creation of HO-1-expressing mammalian vec-tors, the Synechocystis HO-1 was used, and the codons were not optimized for mammalian expression. Synechocystis HO-1 was directly amplified from the pBAD vector using primers containing 5′ BsiWI and 3′ XbaI restriction enzyme sites. pCDNA3 smURFP, TDsmURFP, IFP1.4, IFP2.0, or iRFP713-IRES-eGFP vectors were digested with BsiWI and XbaI (NEB), dephosphorylated (SAP, Roche), gel purified (Zymoclean Gel DNA Recovery Kit), and ligated (T4 DNA Ligase, Life Technologies) with similarly digested, purified HO-1 PCR fragment. For creation of smURFP fusions, smURFP was PCR amplified using Phusion High-Fidelity DNA Polymerase (NEB) with primers containing 5′ AgeI and 3′ NotI restriction enzyme sites for N-terminal fusions or with primers containing 5′ AgeI and 3′ BspEI restriction enzyme sites for C-terminal fusions. mGeos2-VEL-ManII-N-10 (Addgene 57551) and Dronpa-PDHA1-N-10 (Addgene 57292) vectors were digested with AgeI and NotI (NEB) and mCherry-αTubulin-C-18 (Addgene 55148) and tdTomato-LaminB1-10 (Addgene 58107) were digested with AgeI and BspEI, dephosphorylated (SAP, Roche), gel purified (Zymoclean Gel DNA Recovery Kit), and ligated (T4 DNA Ligase, Life Technologies) with similarly digested, purified smURFP PCR fragment. HEK293A (Invitrogen, Life Technologies), HT1080 (ATCC), and PC3 (ATCC) cells were grown in Dulbecco's Modified Eagle's medium (DMEM, Corning), supplemented with 10% FBS (Atlanta Biologicals)+1×penicillin—streptomycin (Fisher Scientific), which is referred to as growth media, on poly-D-lysine-coated glass-bottom culture dishes (MatTek, No. P35G-0-14-C). The HEK cell line is listed in the ICLAC and NCBI biosample databases and is commonly misidentified as the HeLa cell line. For expression of exogenous fluorescent proteins, there is no problem if there is a contaminating cell line because no endogenous biology or therapeutic results are being determined. HEK293A cells were purchased from Invitrogen (Life Technologies), and all experiments are derived from the same expanded frozen stock without cell line authentication or mycoplasma detection. Cells were transfected using 2 μg of circular DNA+5 μl Lipofectamine 2000 (Life Technologies) in 2 ml Opti-MEM (Life Technologies) for 4-5 h, transfection media was discarded, and prewarmed growth media was added. Chromophores (5 mM in DMSO) were added at indicated concentrations to growth media, warmed for 10-15 min at 37° C., and added to cells. For multiple timepoints, incubations were staggered to maintain equivalent incubation. Prior to imaging, cells were washed 1×2 ml growth media, 2×2 ml imaging solution, and imaged in 2 ml imaging solution. Fluorescence imaging was performed on a Zeiss Axiovert 200M inverted microscope controlled by SlideBook software. FPs were imaged with the following settings: eGFP, EX/EM=495(10)/535(25) nm, tdTomato EX/EM=540(25)/595(50) nm; mCherry and mCardinal, EX/EM=580(20)/653(95) nm; smURFP and TDsmURFP, EX/EX=628(40)/680(30) nm; and IFP1.4, IFP2.0, and iRFP713, EX/EM=665(45)/725(50) nm. […]

| Molecule | stoichiometry [1] | t50%, time to bleach for 50% emission intensity (PC3 cells) [s] | A1, Double Exportential Decay Fit (PC3 cells) | A2, Double Exportential Decay Fit (PC3 cells) | A, Single Exponential Decay Fit (PC3 cells) | k1, Double Exportential Decay Fit (PC3 cells) [s⁻¹] | k2, Double Exportential Decay Fit (PC3 cells) [s⁻¹] | k, Single Exponential Decay Fit (PC3 cells) [s⁻¹] | mammalian cell photostability t50% (PC3 cells) [s] | also measured |
| --- | --- | --- | --- | --- | --- | --- | --- | --- | --- | --- |
| B1 | Dimer | 410 | 0.23 | 0.72 | 0.75 | 0.00024 | 0.0022 | 0.0008 | 570 | quaternary structure on native gel [1]: homodimer; fluorescence relative to mCherry in HT1080 cells in vitro (HT1080 cells; 12.5 μM BV for 3 h): equivalent; fold greater fluorescence than mCardinal (HT1080 cells; HT1080, T2A construct): 4 fold; average time to bleach 50% emission, t50% (PC3 cells; with BV, mammalian cells (n=5)): 570 s; average time to bleach 50% emission, t50% (PC3 cells; with BVMe2, mammalian cells (n=5)): 340 s; brightness in cell culture compared with other FPs (HEK293A cells): comparable brightness to eGFP and is brighter than mCherry, mCardinal, IFP1.4, IFP2.0, and iRFP713; fold increase in fluorescence with HO-1+5-ALA+FeSO4 (HEK293A cells; HEK293A cells): 7.7 fold; fold increase in fluorescence with expression of HO-1 (HEK293A cells; HEK293A cells): 2.8 fold; fold increase in fluorescence with 25 μM BV (HEK293A cells; HEK293A cells, 3 h): 4.7 fold; fold increase in fluorescence with 25 μM BVMe2 relative to 25 μM BV (HEK293A cells; HEK293A cells, 3 h): 18 fold; fold increase in fluorescence with 25 μM PCB relative to 25 μM BV (HEK293A cells; HEK293A cells, 3 h): 10 fold; fluorescence relative to eGFP expressed from IRES (HEK293A cells; HEK293A cells, in the presence of BVMe2): five-fold greater fluorescence |
| B2 | Dimer | 190 | 0.42 | 0.57 | 0.73 | 0.020 | 0.0012 | 0.0015 | 340 | fold greater fluorescence than mCardinal (HT1080 cells; HT1080 stable lines expressing each FP separately): 2 fold; fold brighter than IFP2.0 or iRFP713 (HEK293A cells; HEK293A cells): 7 fold; fold increase in fluorescence relative to smURFP (HEK293A cells; HEK293A cells, chromophore incubation 3 h): > 32 fold |
